T1: human DLL3 (endogenous, on SCLC cell lines NCI-H82 and SHP77 and in SCLC tissue) (human, UniProt Q9NYJ7 27-618)
T1 sequence (looked up): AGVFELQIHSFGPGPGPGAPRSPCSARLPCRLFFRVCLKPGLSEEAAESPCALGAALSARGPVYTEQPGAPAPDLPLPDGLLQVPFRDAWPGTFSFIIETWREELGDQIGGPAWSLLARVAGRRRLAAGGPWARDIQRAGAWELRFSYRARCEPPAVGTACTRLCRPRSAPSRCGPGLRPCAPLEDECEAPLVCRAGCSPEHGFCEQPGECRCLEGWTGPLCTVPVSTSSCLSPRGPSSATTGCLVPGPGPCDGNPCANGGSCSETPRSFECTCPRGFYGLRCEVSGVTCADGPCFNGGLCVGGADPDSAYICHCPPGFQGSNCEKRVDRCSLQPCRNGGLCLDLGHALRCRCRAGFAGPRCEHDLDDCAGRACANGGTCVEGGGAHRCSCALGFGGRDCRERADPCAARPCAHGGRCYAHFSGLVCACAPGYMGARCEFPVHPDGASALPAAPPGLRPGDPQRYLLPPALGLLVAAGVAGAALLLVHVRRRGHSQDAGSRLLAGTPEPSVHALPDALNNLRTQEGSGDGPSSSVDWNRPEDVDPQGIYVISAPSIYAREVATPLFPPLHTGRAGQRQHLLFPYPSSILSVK

T2: Human DLL3-His (human, UniProt Q9NYJ7 27-492)
T2 construct: also called huDLL3-His; hu DLL3
T2 sequence: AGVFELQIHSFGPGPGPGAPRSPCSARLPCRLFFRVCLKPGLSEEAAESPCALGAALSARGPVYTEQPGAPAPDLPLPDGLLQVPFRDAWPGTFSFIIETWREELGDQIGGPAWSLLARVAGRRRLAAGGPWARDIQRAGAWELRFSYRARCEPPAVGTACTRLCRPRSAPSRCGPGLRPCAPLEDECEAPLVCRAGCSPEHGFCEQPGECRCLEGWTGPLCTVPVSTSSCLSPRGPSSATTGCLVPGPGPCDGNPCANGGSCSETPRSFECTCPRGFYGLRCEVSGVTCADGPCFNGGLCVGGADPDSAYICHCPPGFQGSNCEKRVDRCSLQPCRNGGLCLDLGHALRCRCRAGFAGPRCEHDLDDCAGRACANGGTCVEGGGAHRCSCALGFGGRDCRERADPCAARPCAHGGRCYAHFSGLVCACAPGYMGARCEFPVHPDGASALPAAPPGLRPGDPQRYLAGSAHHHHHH

T3: FLAG-tagged human DLL1 full length (human, UniProt O00548 1-723)
T3 construct: also called human DLL1 on HEK293 cells
T3 sequence: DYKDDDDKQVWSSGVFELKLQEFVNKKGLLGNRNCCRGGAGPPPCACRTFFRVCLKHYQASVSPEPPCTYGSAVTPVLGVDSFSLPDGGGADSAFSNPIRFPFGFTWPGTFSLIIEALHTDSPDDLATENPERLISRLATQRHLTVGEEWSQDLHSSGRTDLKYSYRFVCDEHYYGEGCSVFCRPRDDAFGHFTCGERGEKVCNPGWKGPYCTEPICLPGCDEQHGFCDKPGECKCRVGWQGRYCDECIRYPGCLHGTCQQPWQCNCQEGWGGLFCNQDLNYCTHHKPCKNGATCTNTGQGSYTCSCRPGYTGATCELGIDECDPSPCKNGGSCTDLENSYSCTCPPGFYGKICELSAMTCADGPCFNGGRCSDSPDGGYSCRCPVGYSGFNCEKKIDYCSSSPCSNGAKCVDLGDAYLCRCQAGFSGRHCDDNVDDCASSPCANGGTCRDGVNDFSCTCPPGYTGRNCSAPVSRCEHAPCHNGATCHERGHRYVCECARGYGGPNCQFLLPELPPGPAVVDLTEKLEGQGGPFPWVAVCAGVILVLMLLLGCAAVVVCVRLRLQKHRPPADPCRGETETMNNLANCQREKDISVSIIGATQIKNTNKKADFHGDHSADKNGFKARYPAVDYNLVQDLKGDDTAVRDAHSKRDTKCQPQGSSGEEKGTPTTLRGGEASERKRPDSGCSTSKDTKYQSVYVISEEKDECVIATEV

B1: DLL3#2/CD3#1 (bispecific antibody, human IgG1, kappa, lambda, L234A L235A)
chain 1: DIQMTQSPSAMSASVGDRVTITCRASQGISNYLAWFQQKPGKVPEPLIYAASSLQSGVPSRFSGSGSVTEFTLTISSLQPEDFATYYCLQHNSSPYTFGQGTKLEIKRTVAAPSVFIFPPSDEQLKSGTASVVCLLNNFYPREAKVQWKVDNALQSGNSQESVTEQDSKDSTYSLSSTLTLSKADYEKHKVYACEVTHQGLSSPVTKSFNRGECGGGGSEGKSSGSGSESKSTEGKSSGSGSESKSTGGGGSQVQLVQSGAEVKKPGASVKVSCKASGYTFTSYYMHWVRQAPGQGLEWMGIINPSGGSTSYAQKFQGRVTMTRDTSTSTVYMELSSLRSEDTAVYYCARGEAVGGNYYYYGMDVWGQGTTVTVSSASTKGPSVFPLAPSSKSTSGGTAALGCLVKDYFPEPVTVSWNSGALTSGVHTFPAVLQSSGLYSLSSVVTVPSSSLGTQTYICNVNHKPSNTKVDKRVEPKSCDKTHTCPPCPAPEAAGGPSVFLFPPKPKDTLMISRTPEVTCVVVDVSHEDPEVKFNWYVDGVEVHNAKTKPREEQYNSTYRVVSVLTVLHQDWLNGKEYKCKVSNKALPAPIEKTISKAKGQPREPQVYTLPPSREEMTKNQVSLWCLVKGFYPSDIAVEWESNGQPENNYKTTPPVLDSDGSFFLYSKLTVDKSRWQQGNVFSCSVMHEALHNHYTQKSLSLSPG
chain 2: EAVVTQEPSLTVSPGGTVTLTCRSSTGAVTTSNYANWVQEKPGQLPRGLIGGTNKRAPWVPARFSGSLLGGKAALTLSGAQPEDEAEYFCALWYSNLWVFGGGTKLTVLGQPKAAPSVTLFPPSSEELQANKATLVCLISDFYPGAVKVAWKADGSPVNTGVETTTPSKQSNNKYAASSYLSLTPEQWKSHRSYSCQVTHEGSTVEKTVAPAECSGGGGSEGKSSGSGSESKSTEGKSSGSGSESKSTGGGGSEVQLVESGGGLVQPGGSLKLSCAASGFTFNTYAMNWVRQAPGKGLEWVARIRSKYNNYATYYADSVKDRFTISRDDSKNTAYLQMNNLKTEDTAVYYCVRHGNFGNSYVSWFAYWGQGTLVTVSAASTKGPSVFPLAPSSKSTSGGTAALGCLVKDYFPEPVTVSWNSGALTSGVHTFPAVLQSSGLYSLSSVVTVPSSSLGTQTYICNVNHKPSNTKVDKRVEPKSCDKTHTCPPCPAPEAAGGPSVFLFPPKPKDTLMISRTPEVTCVVVDVSHEDPEVKFNWYVDGVEVHNAKTKPREEQYNSTYRVVSVLTVLHQDWLNGKEYKCKVSNKALPAPIEKTISKAKGQPREPQVYTLPPSREEMTKNQVSLSCAVKGFYPSDIAVEWESNGQPENNYKTTPPVLDSDGSFFLVSKLTVDKSRWQQGNVFSCSVMHEALHNRFTQKSLSLSPG
notes: Heterodimer of one DLL3 chain and one CD3 chain (scFab-Fc, knob-in-hole)
B2: DLL3#6/CD3#1 (bispecific antibody, human IgG1, kappa, lambda, L234A L235A)
chain 1: DIQLTQSPSFLSTSVGDRVTITCRASQDISNYFAWYQQKPGKAPKLLIYAASTLQSGVPSRFSGGGSGTEFTLTISSLQPEDFATYYCQQLNSYPYTFGQGTKLEIKRTVAAPSVFIFPPSDEQLKSGTASVVCLLNNFYPREAKVQWKVDNALQSGNSQESVTEQDSKDSTYSLSSTLTLSKADYEKHKVYACEVTHQGLSSPVTKSFNRGECGGGGSEGKSSGSGSESKSTEGKSSGSGSESKSTGGGGSQVQLQESGPGLVKPSETLSLTCTVSGGSISSYFWSWIRQPAGKGLEWIGRIYTSGSTNYNPSLNSRLTMSVDTSKNQFSLKLSSVTAADTAVYYCARRGDWGGFDIWGQGTVVTVSSASTKGPSVFPLAPSSKSTSGGTAALGCLVKDYFPEPVTVSWNSGALTSGVHTFPAVLQSSGLYSLSSVVTVPSSSLGTQTYICNVNHKPSNTKVDKRVEPKSCDKTHTCPPCPAPEAAGGPSVFLFPPKPKDTLMISRTPEVTCVVVDVSHEDPEVKFNWYVDGVEVHNAKTKPREEQYNSTYRVVSVLTVLHQDWLNGKEYKCKVSNKALPAPIEKTISKAKGQPREPQVYTLPPSREEMTKNQVSLWCLVKGFYPSDIAVEWESNGQPENNYKTTPPVLDSDGSFFLYSKLTVDKSRWQQGNVFSCSVMHEALHNHYTQKSLSLSPG
chain 2: EAVVTQEPSLTVSPGGTVTLTCRSSTGAVTTSNYANWVQEKPGQLPRGLIGGTNKRAPWVPARFSGSLLGGKAALTLSGAQPEDEAEYFCALWYSNLWVFGGGTKLTVLGQPKAAPSVTLFPPSSEELQANKATLVCLISDFYPGAVKVAWKADGSPVNTGVETTTPSKQSNNKYAASSYLSLTPEQWKSHRSYSCQVTHEGSTVEKTVAPAECSGGGGSEGKSSGSGSESKSTEGKSSGSGSESKSTGGGGSEVQLVESGGGLVQPGGSLKLSCAASGFTFNTYAMNWVRQAPGKGLEWVARIRSKYNNYATYYADSVKDRFTISRDDSKNTAYLQMNNLKTEDTAVYYCVRHGNFGNSYVSWFAYWGQGTLVTVSAASTKGPSVFPLAPSSKSTSGGTAALGCLVKDYFPEPVTVSWNSGALTSGVHTFPAVLQSSGLYSLSSVVTVPSSSLGTQTYICNVNHKPSNTKVDKRVEPKSCDKTHTCPPCPAPEAAGGPSVFLFPPKPKDTLMISRTPEVTCVVVDVSHEDPEVKFNWYVDGVEVHNAKTKPREEQYNSTYRVVSVLTVLHQDWLNGKEYKCKVSNKALPAPIEKTISKAKGQPREPQVYTLPPSREEMTKNQVSLSCAVKGFYPSDIAVEWESNGQPENNYKTTPPVLDSDGSFFLVSKLTVDKSRWQQGNVFSCSVMHEALHNRFTQKSLSLSPG
notes: as for B1

Experiments:
[1] = molecular target: T1, human DLL3 (endogenous, on SCLC cell …); assay: cell-based or functional assay
[2] = molecular target: T4, trypsin inhibitor from glycine max soybean (Glycine max (soybean)); assay: SPR (Biacore T200), trypsin inhibitor on CM5 chip, sample at 1 µM
T4 construct: also called Tryp
T4 sequence (P01070 25-205): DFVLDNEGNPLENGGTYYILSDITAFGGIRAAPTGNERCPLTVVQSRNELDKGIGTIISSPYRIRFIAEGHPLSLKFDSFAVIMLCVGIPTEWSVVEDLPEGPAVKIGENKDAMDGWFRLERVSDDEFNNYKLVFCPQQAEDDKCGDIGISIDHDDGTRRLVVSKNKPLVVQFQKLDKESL
Excerpt: To prepare the surface for the non-specific binding experiment, chicken egg white lysozyme and trypsin inhibitor from glycine max soybean were coupled manually to a series S CM5 chip with the surface density of 3000-5000 RU using the amine coupling kit according to the manufacture instructions.

Human DLL3-His = molecular target: T2, Human DLL3-His; assay: SPR (ProteOn XPR36), bispecific captured on protein A/G, hu DLL3 as analyte, Example 4B
How it was run: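 Bispecific constructs captured on protein A/G for 200 s at 30 μl/min, baseline stabilized with PBS-T-EDTA. Human DLL3 analyte injected 300 s at 30 μl/min; dissociation followed for 1800 s.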

[3] = molecular target: T3, FLAG-tagged human DLL1 full length; assay: flow cytometry on HEK293 cells expressing human DLL1 (HEK293-huDLL1), PE anti-human secondary, control: secondary antibody only
Procedure: Bound molecules were detected with PE-conjugated anti-human secondary antibody (Sigma-Aldrich, #P8047). As negative control, cells were incubated with secondary antibody only. The samples were measured by flow-cytometry.

[4] = molecular target: T1, human DLL3 (endogenous, on SCLC cell …); assay: flow cytometry titration on SHP77 cells, PE anti-human secondary, x-fold over background
Excerpt: Cells (T cells or human SCLC cells) were stained with increasing concentrations of two-step purified DLL3/CD3 binding proteins with increasing concentrations in FACS buffer (PBS/0.5% BSA/0.05% sodium azide). Bound molecules were detected with PE-conjugated anti-human secondary antibody (Sigma-Aldrich, #P8047).

Row | Binder | EC90, 72 hour cytotoxicity assay, purified T cells as effector cells, NCI-H82 target cells [1] [nM] | EC90, 72 hour cytotoxicity assay, purified T cells as effector cells, SHP77 target cells [1] [nM] | Non-specific binding (RU) [2] [RU] | Kd (Human DLL3-His) [nM] | binding result [3] | EC50 (read off the curve) [4] [nM]
1 | B1 | 1.51 | 0.16 | 2 | 0.091 | no binding (tested: 1.6 nM) | –
2 | B2 | – | – | 0 | 0.152 | no binding (tested: 1.6 nM) | ~2
